{
  "source": "patent US20120270801A1",
  "about": "(Affibody, published 2012)",
  "binders": {"B1": {"name": "heregulin (HRG1-β1, EGF-like domain, R&D Systems) (ligand, human, UniProt Q02297-6 177-241, looked up)", "chain": "SHLVKCAEKEKTFCVNGGECFMVKDLSNPSRYLCKCPNEFTGDRCQNYVMASFYKHLGIEFMEAE", "notes": "domain: EGF-like domain; also called human heregulin; HRG1-β, 396-HB"}},
  "target": "T1, recombinant human HER3/Fc chimera (R&D Systems, #348-RB-050) (human, UniProt P21860 20-643)",
  "T1 construct": "Bought reagent; Biotinylated for flow cytometry, unlabelled for dot blot, ELISA and SPR; also called biotinylated HER3-Fc; not shown: human IgG Fc-region",
  "experiment": "SPR, 2.5 nM HER3-Fc alone injected over immobilised heregulin",
  "data": [
    {"binder": "B1", "values": [
      {"measurement": "binding result", "result": "binds"}
    ]}
  ]
}
